Residue numbers refer to the chain shown, from its start. Each block holds one binder with its values, some of them ahead of it.
Legend:
[1] = target: T1, cyno αvβ6 on 293F:cynoβ6 cells (human;Macaca fascicularis, UniProt P06756 31-1048; A0A2K5TZ36 22-787); assay: saturation binding on 293F cells; AF647-labeled
T1 chain 1: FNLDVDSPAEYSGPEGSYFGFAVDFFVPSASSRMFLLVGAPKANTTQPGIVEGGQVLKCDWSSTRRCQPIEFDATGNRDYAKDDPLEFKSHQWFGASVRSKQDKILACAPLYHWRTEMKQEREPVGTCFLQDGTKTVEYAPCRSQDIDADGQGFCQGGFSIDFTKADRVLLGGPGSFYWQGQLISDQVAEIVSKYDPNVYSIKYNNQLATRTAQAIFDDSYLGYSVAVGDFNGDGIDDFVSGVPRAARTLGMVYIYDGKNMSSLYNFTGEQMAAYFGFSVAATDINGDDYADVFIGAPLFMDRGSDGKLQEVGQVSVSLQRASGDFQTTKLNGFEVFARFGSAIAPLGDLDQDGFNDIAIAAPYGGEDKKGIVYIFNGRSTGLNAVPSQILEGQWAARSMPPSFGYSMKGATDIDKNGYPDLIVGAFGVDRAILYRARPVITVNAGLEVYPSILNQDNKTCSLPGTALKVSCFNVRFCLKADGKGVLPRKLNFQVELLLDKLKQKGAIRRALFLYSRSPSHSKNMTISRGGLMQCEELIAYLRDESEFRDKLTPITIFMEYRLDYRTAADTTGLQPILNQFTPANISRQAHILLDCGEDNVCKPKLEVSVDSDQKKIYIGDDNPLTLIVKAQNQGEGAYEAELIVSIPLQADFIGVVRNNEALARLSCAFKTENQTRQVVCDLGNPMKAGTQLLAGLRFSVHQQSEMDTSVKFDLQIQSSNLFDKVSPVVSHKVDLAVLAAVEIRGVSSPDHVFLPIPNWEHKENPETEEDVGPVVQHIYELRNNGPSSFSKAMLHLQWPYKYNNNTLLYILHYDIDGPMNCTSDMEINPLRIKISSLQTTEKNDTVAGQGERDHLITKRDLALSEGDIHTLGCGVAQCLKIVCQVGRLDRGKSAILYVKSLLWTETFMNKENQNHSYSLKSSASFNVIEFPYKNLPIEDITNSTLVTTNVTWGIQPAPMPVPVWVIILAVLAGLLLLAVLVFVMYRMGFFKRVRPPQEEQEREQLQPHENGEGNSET
T1 chain 2: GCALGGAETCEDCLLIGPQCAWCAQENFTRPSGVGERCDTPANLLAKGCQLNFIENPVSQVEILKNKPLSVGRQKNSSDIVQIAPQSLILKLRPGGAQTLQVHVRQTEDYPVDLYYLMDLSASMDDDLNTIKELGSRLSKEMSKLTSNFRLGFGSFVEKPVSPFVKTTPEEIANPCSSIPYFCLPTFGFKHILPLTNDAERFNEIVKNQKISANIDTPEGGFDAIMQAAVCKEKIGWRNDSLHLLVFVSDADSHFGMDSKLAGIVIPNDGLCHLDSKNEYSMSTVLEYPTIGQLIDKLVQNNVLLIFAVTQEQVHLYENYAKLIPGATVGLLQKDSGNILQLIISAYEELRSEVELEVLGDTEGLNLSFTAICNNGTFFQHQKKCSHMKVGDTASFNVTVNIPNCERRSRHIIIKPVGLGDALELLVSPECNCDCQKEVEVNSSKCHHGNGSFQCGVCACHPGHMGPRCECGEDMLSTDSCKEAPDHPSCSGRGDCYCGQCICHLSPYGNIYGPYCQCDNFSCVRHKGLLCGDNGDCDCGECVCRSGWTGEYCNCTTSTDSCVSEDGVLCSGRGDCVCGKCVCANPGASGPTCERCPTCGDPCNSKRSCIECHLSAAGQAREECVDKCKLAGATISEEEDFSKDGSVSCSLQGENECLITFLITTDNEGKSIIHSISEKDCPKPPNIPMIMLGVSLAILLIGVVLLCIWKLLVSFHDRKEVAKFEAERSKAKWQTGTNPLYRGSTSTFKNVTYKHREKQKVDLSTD

[2] = target: T2, human αvβ6 on 293F:huβ6 cells (human, UniProt P06756 31-1048; P18564 22-788); assay: saturation binding on 293F cells; AF647-labeled
T2 chain 1: T1 chain 1
T2 chain 2: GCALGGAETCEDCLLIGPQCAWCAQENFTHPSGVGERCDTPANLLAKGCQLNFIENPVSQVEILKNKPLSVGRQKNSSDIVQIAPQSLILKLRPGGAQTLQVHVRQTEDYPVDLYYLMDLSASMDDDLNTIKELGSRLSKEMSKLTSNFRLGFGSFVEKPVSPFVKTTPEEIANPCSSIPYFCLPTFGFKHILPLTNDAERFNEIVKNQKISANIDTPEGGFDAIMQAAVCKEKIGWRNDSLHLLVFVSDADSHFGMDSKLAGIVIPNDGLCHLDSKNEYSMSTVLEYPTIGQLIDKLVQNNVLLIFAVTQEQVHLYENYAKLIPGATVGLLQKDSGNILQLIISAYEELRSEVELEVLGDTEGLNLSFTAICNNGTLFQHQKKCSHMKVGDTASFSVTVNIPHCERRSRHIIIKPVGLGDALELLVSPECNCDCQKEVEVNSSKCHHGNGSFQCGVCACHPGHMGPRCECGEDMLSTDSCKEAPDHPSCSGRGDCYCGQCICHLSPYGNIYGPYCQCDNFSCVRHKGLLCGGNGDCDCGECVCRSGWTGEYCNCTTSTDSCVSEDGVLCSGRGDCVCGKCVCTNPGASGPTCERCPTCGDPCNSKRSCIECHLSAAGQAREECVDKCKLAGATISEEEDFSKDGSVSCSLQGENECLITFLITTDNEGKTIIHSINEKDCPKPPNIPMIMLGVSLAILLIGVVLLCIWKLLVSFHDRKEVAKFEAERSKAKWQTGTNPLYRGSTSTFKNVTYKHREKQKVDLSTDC

[3] = target: T2, human αvβ6 on 293F:huβ6 cells; assay: competition binding on 293F cells; 2nM m2A2-AF647 competitor
[4] = target: T2, human αvβ6 on 293F:huβ6 cells; assay: as above
[5] = target: T3, human αvβ6 on 293F:huβ6 cells (human, UniProt P06756 31-1048; P18564 22-788); assay: FMAT and flow cytometry binding studies on cells
T3 construct: whole, on cells; also called HEK293F:huβ6

[6] = target: T4, αvβ5 on the αvβ5-positive parental line (293F:vector) (human, UniProt P06756 31-1048; P18084 24-799); assay: FMAT and flow cytometry binding studies on cells
T4 construct: whole, on cells; HEK293F cells transfected with the empty vector, used as negative control; also called HEK293F:vector

[7] = target: T2, human αvβ6 on 293F:huβ6 cells; assay: competition binding on 293F cells; 2nM m2A2-AF647 competitor
[8] = target: T1, cyno αvβ6 on 293F:cynoβ6 cells; assay: saturation binding on 293F cells; AF647-labeled
[9] = target: T2, human αvβ6 on 293F:huβ6 cells; assay: saturation binding on 293F cells; AF647-labeled
[10] = target: T1, cyno αvβ6 on 293F:cynoβ6 cells; assay: competition binding on 293F cells
[11] = target: T2, human αvβ6 on 293F:huβ6 cells; assay: competition binding on 293F cells
[12] = target: T3, human αvβ6 on 293F:huβ6 cells; assay: competition binding by flow cytometry on 293F:huβ6 cells
Method: 0.1×10⁶ antigen expressing cells were aliquoted in each well of a 96-well v-bottom plate on ice. The cells were incubated for 1 hour with 2 nM AlexaFluor-647 labeled humanized 2A2 HCLG and increasing concentrations (from 4 pM-1 uM) of unlabeled humanized 2A2 HCLG antibody and h2A2-Mdpr-PEG(12)-gluc-MMAE(8) in buffer (Tris-buffered saline, 2% fetal bovine serum, 0.5 mM MnCl₂, 0.02% NaN₃). Cells were pelleted and washed 3 times with TBS/FBS. The cells were pelleted and resuspended in 125 uL of TBS/FBS. Fluorescent signal of binding was detected using a Becton Dickinson Biosciences LSR II (San Jose, CA). Percent of saturated fluorescent signal was used to determine percent labeled humanized 2A2 antibody bound to cells and to subsequently extrapolate the EC50 by fitting the data to a sigmoidal dose-response curve with variable slope using GraphPad Software (LaJolla, CA).

T4 sequence (P18084 24-799, one chain of several): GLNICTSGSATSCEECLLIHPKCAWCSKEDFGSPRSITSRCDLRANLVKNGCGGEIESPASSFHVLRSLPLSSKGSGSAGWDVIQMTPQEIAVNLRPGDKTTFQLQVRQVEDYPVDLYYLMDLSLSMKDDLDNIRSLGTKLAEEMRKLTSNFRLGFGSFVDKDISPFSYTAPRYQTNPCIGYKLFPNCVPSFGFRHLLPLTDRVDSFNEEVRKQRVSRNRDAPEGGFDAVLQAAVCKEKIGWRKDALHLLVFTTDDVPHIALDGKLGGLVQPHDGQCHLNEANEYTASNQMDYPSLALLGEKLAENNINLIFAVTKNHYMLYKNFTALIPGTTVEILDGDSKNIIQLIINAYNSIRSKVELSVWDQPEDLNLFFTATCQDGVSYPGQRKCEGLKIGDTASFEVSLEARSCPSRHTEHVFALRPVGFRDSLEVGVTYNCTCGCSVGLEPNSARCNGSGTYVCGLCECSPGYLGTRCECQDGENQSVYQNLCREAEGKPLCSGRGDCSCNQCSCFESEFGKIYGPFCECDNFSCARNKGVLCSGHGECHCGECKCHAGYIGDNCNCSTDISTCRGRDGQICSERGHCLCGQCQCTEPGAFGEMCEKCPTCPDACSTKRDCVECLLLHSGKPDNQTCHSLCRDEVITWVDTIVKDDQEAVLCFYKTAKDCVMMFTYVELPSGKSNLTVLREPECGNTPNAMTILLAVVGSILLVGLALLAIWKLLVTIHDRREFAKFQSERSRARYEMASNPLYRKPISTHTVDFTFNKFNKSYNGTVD

B1: murine monoclonal antibody 2A2 (antibody, V domains shown)
VH: EFQLQQSGPELVKPGASVKISCKASGYSFTDYNVNWVKQSNGKSLEWIGVINPKYGTTRYNQKFKGKATLTVDKPSSTAYMQLNSLTSEDSAVYYCTRGLNAWDYWGQGASVTVSS
VL: DIQMTQSPASLSASVGETVTITCGASENIYGALNWYQRKQGKSPQLLIYGATNLADGMSSRFSGSGSGRQYSFKISSLHPDDVATYYCQNVLTTPYTFGGGTKLEIK
notes: Mouse hybridoma IgG; also called m2A2; mouse 2A2
EC50 [1]: 0.4 nM
EC50 [2]: 0.5 nM
EC50 [3]: 3 nM
EC50 [4]: 3 nM
binding result [5]: binds
binding result [6]: no binding
EC50 [7]: 2 nM
EC50 [8]: 0.4 nM
EC50 [9]: 0.5 nM

B2: h2A2 HCLH (antibody, V domains shown)
VH: QFQLVQSGAEVKKPGASVKVSCKASGYSFTDYNVNWVRQAPGQGLEWIGVINPKYGTTRYNQKFKGRATLTVDKSTSTAYMELSSLRSEDTAVYYCTRGLNAWDYWGQGTLVTVSS
VL: DIQMTQSPSSLSASVGDRVTITCGASENIYGALNWYQQKPGKAPKLLIYGATNLADGVPSRFSGSGSGRDFTFTISSLQPEDIATYYCQNVLTTPYTFGQGTKLEIKR
EC50 [4]: 46 nM
EC50 [7]: 30 nM

B4: h2A2 HALB (antibody, V domains shown)
VH: B2 VH with I48M, A68V, L70M, V72R, K74T, A79V
VL: B2 VL with F71Y
EC50 [3]: 5 nM
EC50 [7]: 8 nM

B6: h2A2 HCLE (antibody, V domains shown)
VH: B2 VH
VL: B2 VL with G24Q, F71Y
EC50 [4]: 2 nM
EC50 [7]: 3 nM

Further lines, results first:

EC50 [4]: 1 nM
EC50 [7]: 1 nM
B3: h2A2 HALG (antibody, V domains shown)
VH: B2 VH with I48M, A68V, L70M, V72R, K74T, A79V
VL: B2 VL with A55E, F71Y

EC50 [10]: 4 nM
EC50 [11]: 4 nM
binding result [12]: binds
B5: h2A2-Mdpr-PEG(12)-gluc-MMAE(8) (antibody, human IgG1, kappa, V domains shown)
VH: B2 VH
VL: B2 VL with A55E, F71Y
modifications: SGD-5088 drug-linker (Mdpr-PEG(12)-gluc-MMAE) on cysteines of the reduced interchain disulfides, eight copies of drug-linker per antibody
notes: also called ADC prepared with h2A2 HCLG and the SGD-5088 drug-linker; HCLG ADC

Reference: patent US20250242041A1 (Seagen, published 2025)
